Data from patent publication US20240287150A1 (Harvard, published 2024).

Target: T1, EPO receptor (EPOR) on TF-1 cells (human, UniProt P19235 25-508)
T1 sequence (looked up): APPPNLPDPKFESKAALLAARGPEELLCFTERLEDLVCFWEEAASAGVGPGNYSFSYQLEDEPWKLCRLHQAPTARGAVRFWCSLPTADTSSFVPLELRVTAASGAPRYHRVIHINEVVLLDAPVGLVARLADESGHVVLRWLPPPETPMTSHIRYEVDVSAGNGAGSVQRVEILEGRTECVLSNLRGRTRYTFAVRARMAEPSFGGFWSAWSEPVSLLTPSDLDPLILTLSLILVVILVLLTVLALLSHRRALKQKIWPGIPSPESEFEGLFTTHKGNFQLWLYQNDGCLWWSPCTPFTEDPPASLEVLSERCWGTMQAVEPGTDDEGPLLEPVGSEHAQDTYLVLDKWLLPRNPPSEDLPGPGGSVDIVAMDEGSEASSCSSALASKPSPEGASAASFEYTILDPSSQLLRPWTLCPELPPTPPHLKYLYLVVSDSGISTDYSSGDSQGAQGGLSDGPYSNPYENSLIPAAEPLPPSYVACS
Assay: cell-based or functional assay

EC50 relative to epoetin alfa, TF-1 cell proliferation: 14.2 fold
Substance: Darbepoetin (Aranesp), hyperglycosylated EPO (ligand)
